According to patent publication US20180044429A1 (CELLDEX THERAPEUTICS, published 2018):
Positions count from the first letter of the chain named.

T1: recombinant human CD27 (soluble, captured on anti-FLAG coated ELISA plates) (human, UniProt P26842 20-191)
T1 construct: also called rCD27; sCD27
T1 sequence: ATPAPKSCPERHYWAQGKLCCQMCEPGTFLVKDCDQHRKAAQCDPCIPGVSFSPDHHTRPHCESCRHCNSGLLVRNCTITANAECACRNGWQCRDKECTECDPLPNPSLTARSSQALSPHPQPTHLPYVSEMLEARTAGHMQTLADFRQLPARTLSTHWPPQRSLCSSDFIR

B1: human anti-human CD27 monoclonal antibody 2C2 (full-length, unconjugated IgG) (antibody, V domains shown)
VH: QVQLVESGGGVVQPGRSLRLSCAASGFTFSSYDIHWVRQAPGKGLEWVAVIWNDGSNKYYADSVKGRFTISRDNSTNSLFLQMNSLRAEDTAVYYCVGGTADLEHWDQGTLVTVSS
VL: DIQMTQSPSSLSASVGDRVTITCRASQGISSWLAWYQQKPEKAPKSLIYAASSLQSGVPSRFSGSGSGTDFTLTISSLQPEDFATYYCQQYNSYPLTFGGGTKVEIK
notes: Tested as full-length unconjugated IgG; also called 2C2 mAb
B2: human anti-human CD27 monoclonal antibody 1F5 (full-length, unconjugated IgG) (antibody, V domains shown)
VH: QVQLVESGGGVVQPGRSLRLSCAASGFTFSSYDMHWVRQAPGKGLEWVAVIWYDGSNKYYADSVKGRFTISRDNSKNTLYLQMNSLRAEDTAVYYCARGSGNWGFFDYWGQGTLVTVSS
VL: B1 VL with S31R, S93T, L96R, G100Q
notes: also called 1F5 mAb; anti-CD27 antibody (1F5)

Experiments:
[1] = target: T1, recombinant human CD27 (soluble, …); experiment: ELISA; CD27 captured on plates coated with anti-FLAG antibody, detection with goat anti-human IgG Fc-HRP; panel title 'Recombinant CD27'
Method: In this example, the binding activity of the CD27 agonists prepared as described in Example 2 was examined. Binding to recombinant CD27 (rCD27) was tested by standard ELISA. Human CD27 was captured on ELISA plates coated with anti-FLAG antibody, followed by incubation with CD27 agonists. A goat anti-human IgG Fc-HRP (horseradish peroxidase) antibody and substrate Super Blue TMB were used for detection.
The CD27 agonists tested were 1F5mAb-1F5sFv (sFv), 1F5mAb-2C2sFv (sFv) and 1F5mAb-CD70. The full-length, unconjugated IgG form of the anti-human CD27 monoclonal antibodies 1F5 and 2C2 were used as positive controls. Binding to a mutant form of soluble CD27, in which the arginine at position 87 was substituted with alanine (R87A), which is within the 1F5 binding site, was also tested.

[2] = target: soluble recombinant human CD27 with R87A substitution (human) (UniProt P26842); experiment: ELISA; mutated (R87A) CD27 captured on plates coated with anti-FLAG antibody, detection with goat anti-human IgG Fc-HRP; panel title 'mutated CD27'

Row | Binder | binding result [1] | EC50 (read off the curve) [2] [µg/mL]
1 | B1 | binds | 0.02
2 | B2 | binds | 
